Assay results as given in publication PMC11904002.

Target: T1, Signal peptide peptidase (SPP), human, with a C-terminal myc-tag (human), Q8TCT9
T1 chain: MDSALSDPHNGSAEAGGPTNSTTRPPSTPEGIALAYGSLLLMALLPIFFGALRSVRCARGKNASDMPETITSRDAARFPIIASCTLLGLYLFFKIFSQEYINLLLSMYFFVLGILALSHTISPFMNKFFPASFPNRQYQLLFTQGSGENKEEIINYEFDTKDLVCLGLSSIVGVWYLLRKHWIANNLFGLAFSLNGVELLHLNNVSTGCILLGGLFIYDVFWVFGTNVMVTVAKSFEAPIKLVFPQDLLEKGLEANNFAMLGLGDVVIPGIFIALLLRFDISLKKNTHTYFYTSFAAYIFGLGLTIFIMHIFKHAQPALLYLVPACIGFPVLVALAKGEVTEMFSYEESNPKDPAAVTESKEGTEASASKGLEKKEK
Experiment: SDS-PAGE and Western blot of cell lysate; lysate of transfected HEK cells (50 mM Tris/HCl pH 7.4, 150 mM NaCl, 1% Triton X-100, 0.1% SDS); SDS-PAGE with tris-glycine buffer; SPP band at the size of a dimer
Settings: remark: other sources report otherwise

B1: Signal peptide peptidase (SPP), human, with a C-terminal myc-tag, Q8TCT9-1 1-377 (enzyme)
chain: T1 chain
  stoichiometry N: 2
